Columns and labels:
recombinant mouse FAP = target: T1, recombinant mouse FAP (Mus musculus, UniProt P97321); assay: Surface plasmon resonance binding to recombinant mouse FAP; settings: SPR, 2 μg/ml protein, FIGS. 13 and 14
T1 sequence (P97321 1-761): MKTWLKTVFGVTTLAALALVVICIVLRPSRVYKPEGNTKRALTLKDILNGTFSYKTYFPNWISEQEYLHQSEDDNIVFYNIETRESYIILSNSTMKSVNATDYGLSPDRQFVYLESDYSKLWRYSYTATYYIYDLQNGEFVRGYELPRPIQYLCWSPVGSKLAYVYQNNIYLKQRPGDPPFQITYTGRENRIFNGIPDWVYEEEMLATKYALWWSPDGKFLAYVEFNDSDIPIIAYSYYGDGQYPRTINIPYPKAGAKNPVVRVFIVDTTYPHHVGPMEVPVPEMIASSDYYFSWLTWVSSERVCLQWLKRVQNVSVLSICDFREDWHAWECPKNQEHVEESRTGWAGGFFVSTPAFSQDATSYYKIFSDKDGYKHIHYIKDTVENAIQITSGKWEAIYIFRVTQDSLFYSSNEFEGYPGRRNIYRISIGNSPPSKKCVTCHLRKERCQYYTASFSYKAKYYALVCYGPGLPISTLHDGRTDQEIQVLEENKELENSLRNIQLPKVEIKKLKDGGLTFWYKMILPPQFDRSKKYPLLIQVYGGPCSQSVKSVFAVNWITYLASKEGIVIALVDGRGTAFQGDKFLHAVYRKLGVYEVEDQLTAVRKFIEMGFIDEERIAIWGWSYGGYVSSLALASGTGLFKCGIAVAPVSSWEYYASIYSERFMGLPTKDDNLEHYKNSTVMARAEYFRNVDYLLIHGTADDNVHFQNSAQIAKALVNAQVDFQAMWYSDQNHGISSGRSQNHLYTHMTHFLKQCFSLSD
Method: The surface of the CM5 chip was activated with a 1:1 mixture of […] (N-hydroxysuccinimide) and […] (1-Ethyl-3-(3-dimethylaminopropyl) carbodiimide), and 25 μg/ml of anti-mouse IgG (Fc) antibody was immobilized for 400 seconds at a rate of 10 μl/min. The remaining active ester groups were blocked with 1 M ethanolamine. T1.01m, T1.02m and T1.03m were diluted to 2 μg/ml and reacted on the CM5 chip immobilized with the anti-mouse IgG (Fc) antibody. The recombinant mouse FAP was diluted to 200 nM in 1×HBS-EP+buffer solution and diluted by serial dilution. The diluted recombinant mouse FAP was reacted at a rate of 30 μl/min. The association and dissociation times were 180 seconds and 400 seconds, respectively. After the dissociation, stabilization was performed for 60 seconds, and then a regeneration was performed for 30 seconds with a 10 mM glycine pH 1.5 solution at a rate of 30 μl/min.

HEK-Blue IL-12 cells = assay: Signaling ability in IL-12 recognizing cells (STAT4 inducible SEAP reporter); type: cell-based, human; settings: serial dilution from 4 nM, 24 hours, FIG. 18
Method: The HEK-Blue IL-12 cell line transformed with the IL-12 receptor gene and the STAT4 inducible SEAP reporter gene into HEK293 cells, which are human embryonic kidney fibroblasts, was obtained from Invivogen (San Diego, USA). The HEK-Blue IL-12 cells were maintained in DMEM (GIBCO) containing 10% FBS (GIBCO), 100 μg/ml Normocin and 1×HEK-Blue selection.
Specifically, the HEK-Blue IL-12 cell line, which is an IL-12 recognizing cell, was diluted to 2.8×10^5 cells/ml and dispensed at 180 μl/well. Recombinant human IL-12, T1.01m, T1.02m, T1.03m and T1.12m were suspended at 4 nM and diluted by serial dilution. HEK-Blue IL-12 cells were treated with the diluted recombinant human IL-12, T1.01m, T1.02m, T1.03m and T1.12m. After 24 hours of treatment, the cell supernatant was collected and mixed with QUANTI-Blue Solution (Invivogen) in a 96-well plate. The reporter expression level was measured at 620 nm using a spectrophotometer (Thermo Fisher).

[1] = tested on: FAP-overexpressing CT26 cells; assay: Tumor growth inhibition, FAP-overexpressing CT26 model, repeated i.p. dosing; type: in vivo, BALB/c mice; settings: 18 days after administration, control 50 μg T1.24m
Method: In order to prepare an mouse FAP-expressing tumor animal model, FAP overexpression was induced in CT26, a mouse colorectal cancer cell line. Specifically, the FAP-overexpressing CT26 cells in culture were resuspended in Hanks' Balanced salt solution (HBSS, Gibco), and then each 100 μl of 1×10^6 tumor cells per each mouse was transplanted into the subcutaneous region of the left dorsal side of 6-week-old BALB/c mice using a 1 cc syringe (25G) to obtain a mouse FAP-expressing colorectal cancer animal model. The tumor size was measured using a digital vernier caliper by measuring the short axis and long axis of the tumor, and the tumor size was measured twice a week using the calculation formula of (short axis, mm) 2×(long axis, mm)×0.5.
Next, for drug efficacy evaluation, when the size of the tumor reached 100 mm^3, the mice were randomly divided into groups. Each experimental group consisted of 8 animals, and as a control, each 100 μl of 50 μg of T1.24m was intraperitoneally administered four times at an interval of 3 days. In the test group, each 100 μl of 10 μg and 100 μg of T1.01m, and 2 μg, 10 μg and 100 μg of T1.02m, respectively, were intraperitoneally administered four times at an interval of 3 days to evaluate the tumor growth inhibitory ability.

B1: T1.01m: K&H bispecific: anti-mu FAP/mu IL-12, mu IgG2a DANG (seq18, seq19, seq20) (antibody)
heavy: QVQLQQSGAELARPGASVNLSCKASGYTFTNNGINWLKQRTGQGLEWIGEIYPRSTNTLYNEKFKGKATLTADRSSNTAYMELRSLTSEDSAVYFCARTLTAPFAFWGQGTLVTVSAAKTTAPSVYPLAPVCGDTTGSSVTLGCLVKGYFPEPVTLTWNSGSLSSGVHTFPAVLQSDLYTLSSSVTVTSSTWPSQSITCNVAHPASSTKVDKKIEPRGPTIKPCPPCKCPAPNLLGGPSVFIFPPKIKDVLMISLSPIVTCVVVAVSEDDPDVQISWFVNNVEVHTAQTQTHREDYGSTLRVVSALPIQHQDWMSGKEFKCKVNNKDLPAPIERTISKPKGSVRAPQVYVLPPPEEEMTKKQVTLWCMVTDFMPEDIYVEWTNNGKTELNYKNTEPVLDSDGSYFMYSKLRVEKKNWVERNSYSCSVVHEGLHNHHTTKSFSRTPGK
light: QIVLTQSPAIMSASPGEKVTMTCSASSGVNFMHWYQQKSGTSPKRWIFDTSKLASGVPARFSGSGSGTSYSLTISSMEAEDAATYYCQQWSFNPPTFGGGTKLEIKRADAAPTVSIFPPSSEQLTSGGASVVCFLNNFYPKDINVKWKIDGSERQNGVLNSWTDQDSKDSTYSMSSTLTLTKDEYERHNSYTCEATHKTSTSPIVKSFNRNEC
chain: MWELEKDVYVVEVDWTPDAPGETVNLTCDTPEEDDITWTSDQRHGVIGSGKTLTITVKEFLDAGQYTCHKGGETLSHSHLLLHKKENGIWSTEILKNFKNKTFLKCEAPNYSGRFTCSWLVQRNMDLKFNIKSSSSSPDSRAVTCGMASLSAEKVTLDQRDYEKYSVSCQEDVTCPTAEETLPIELALEARQQNKYENYSTSFFIRDIIKPDPPKNLQMKPLKNSQVEVSWEYPDSWSTPHSYFSLKFFVRIQRKKEKMKETEEGCNQKGAFLVEKTSTEVQCKGGNVCVQAQDRYYNSSCSKWACVPCRVRSGGGGSGGGGSGGGGSRVIPVSGPARCLSQSRNLLKTTDDMVKTAREKLKHYSCTAEDIDHEDITRDQTSTLKTCLPLELHKNESCLATRETSSTTRGSCLPPQKTSLMMTLCLGSIYEDLKMYQTEFQAINAALQNHNHQQIILDKGMLVAIDELMQSLNHNGETLRQKPPVGEADPYRVKMKLCILLHAFSTRVVTINRVMGYLSSAGGGGSGGGGSEPRGPTIKPCPPCKCPAPNLLGGPSVFIFPPKIKDVLMISLSPIVTCVVVAVSEDDPDVQISWFVNNVEVHTAQTQTHREDYGSTLRVVSALPIQHQDWMSGKEFKCKVNNKDLPAPIERTISKPKGSVRAPQVYVLPPPEEEMTKKQVTLSCAVTDFMPEDIYVEWTNNGKTELNYKNTEPVLDSDGSYFMVSKLRVEKKNWVERNSYSCSVVHEGLHNHHTTKSFSRTPGK
With B1 the “Binding to recombinant mouse FAP” value (recombinant mouse FAP) was “may bind to recombinant mouse FAP to specifically target FAP”, the “IL-12 recognition / STAT4 reporter gene expression (620 nm absorbance)” value (HEK-Blue IL-12 cells) was “IL-12 was recognized, and STAT4 expressed a reporter gene by inducing phosphorylation” and the “tumor growth inhibitory ability compared to control” value ([1]; 10 μg i.p. four times at an interval of 3 days) was 84.9%. The “tumor growth inhibitory ability compared to control” value ([1]; 100 μg i.p. four times at an interval of 3 days) was 85.6%.

From patent publication US20250144178A1, “PHARMACEUTICAL COMPOSITION FOR CANCER TREATMENT COMPRISING FUSION PROTEIN INCLUDING IL-12 AND ANTI-FAP ANTIBODY AND ANTICANCER AGENT” (KANAPH THERAPEUTICS INC., priority 2022, published 2025)
